Sequences and labels used below:
B1: OR4K15 (parent)
chain: GUUAACGGUCAUAGGCCAUGGAAACUAGGAGCACCAUUUCGCUGCCAGUGAAGAAAUGAACAAAGAAAAUCUGGGCCAGGCAGGCAUCAAAAGAAAUAGUCUUGCGCUCAACCAGAAAGUCUGUAAUCAUUUUAAGGGUA

Variants of B1 are the subject of the data set. In words: self-cleavage, relative activity (ratio to wild type); higher = more cleavage; in vitro, sequencing; the parent is a self-cleaving ribozyme.
U9C A134G: the self-cleavage came out at 1.55.
The same measure for G7A U70C: 1.
Under G8C A110G stands 0.26; under U9C C45G, 0.85; under U9C C40U, 1.45.
Under U9A A51U stands 1.34; under U9A A51G, 1.66.
G7A U26C: the self-cleavage came to 1.44.
The same measure for G7A U26A: 0.93; for A11C A78G: 0.18; for U9A U70C: 1.07.
The same measure for G7U A18G: 1.68.
Under U9C G31A stands 1.12; under U9C U131A, 1.8.
As for C10U G31U, the self-cleavage stood at 1.22.
For the variant A11C U127C, the self-cleavage was 0.83.
The same measure for U9C A98G: 0.22; for G7A U9C: 2.32.
The same measure for C6U C45A: 1.31.
The same measure for C6U U127C: 0.57.
Turning to U9A A86U, the self-cleavage was found to be 1.37.
Regarding G7C A23G, the self-cleavage turned out to be 0.73.
Under U9C U26C stands 1.06; under A11C A13U, 1.09.
As to U9A A23G, the self-cleavage was determined as 0.95.
Turning to U9A A135U, the self-cleavage worked out at 1.
On to U9A A135G, for which the self-cleavage was 1.41.
Under U9C A96U stands 1.72.
The same measure for U9C U72C: 0.2.
Under G7A A24G stands 1.4.
Turning to U9C A23G, the self-cleavage was 1.02.
As for C10U U39A, the self-cleavage stood at 0.81.
The same measure for G7U A11G: 1.63.
The same measure for G8A U108A: 0.05.
Under G7A A13U stands 1.19.
G7A A62U: the self-cleavage amounted to 1.38.
The same measure for U9A A78G: 0.32.
Under U9A A78U stands 0.15; under C10U A22U, 1.21.
The same measure for U9C A86U: 1.74; for C10U U120C: 1.12; for C10U A82U: 0.13.
On to U9C A82C, for which the self-cleavage was determined as 0.07.
Under A11G A52G stands 1.03; under U9C A78G, 0.32.
Under G7U C77A stands 0.23; under C6U G106U, 0.06.
The same measure for G8A A134G: 1.52.
C10U A118G: the self-cleavage is 0.33.
Under U9A U124C stands 0.91; under G7A A63G, 1.86.
With U9C C81U, the self-cleavage was determined as 0.36.
The same measure for C10G A60G: 0.77.
Under A11G A82G stands 0.55; under A11G A23G, 1.1; under G7U U38C, 0.4.
The same measure for U9C C17U: 1.8; for C10U A86G: 0.7; for G7C A91G: 0.76.
Turning to C10U U57C, the self-cleavage was 1.03.
As to G7A U133A, the self-cleavage stood at 0.79.
The same measure for G7A A55G: 1.39.
Consider U9C G115C, for which the self-cleavage was 0.11.
As to U9C A67C, the self-cleavage was 1.31.
The same measure for U9C A67G: 1.85.
U9A A22C: the self-cleavage came to 0.95.
Take C6U U108C: the self-cleavage stood at 0.08.
Under C10A A110G stands 0.31; under U9C U12C, 1.27.
The same measure for U9C U12A: 1.59.
U9G A118G: the self-cleavage worked out at 0.91.
The same measure for A11G A55G: 0.92; for A11C U131C: 0.89; for G7A G75U: 0.13.
With U9C U57C, the self-cleavage is 1.07.
The same measure for U9C U57G: 1.07; for C10U C77U: 0.98.
The same measure for G7A C112U: 0.02; for U9A C34U: 0.55.
For G8A A59G, the self-cleavage is 1.47.
Under A11C A27U stands 1.24.
On to U9C C35A, for which the self-cleavage amounted to 1.71.
Under U9C C109G stands 0.04.
Consider U9C C109A, for which the self-cleavage turned out to be 0.49.
For A11G A24U, the self-cleavage was 0.53.
The same measure for A11G A24G: 1.02; for A11G A24C: 1.51.
As to G7U U130C, the self-cleavage came out at 1.45.
In the case of A11G A18U, the self-cleavage came to 0.46.
Under A11G A18G stands 1.36; under G7U A52G, 1.83; under U9C G104A, 0.06.
Under G8A A98G stands 1.78; under A11C U38C, 1.72.
Regarding G8A U122C, the self-cleavage was 0.6.
The same measure for U9C A94G: 1.35; for U9C U37C: 1.57.
Under U9A G106C stands 0.05.
On to U9A A95G, for which the self-cleavage was 1.18.
In the case of A11C U97C, the self-cleavage was 1.26.
The same measure for G7A U127C: 1.29; for C10A U37C: 1.
The same measure for C10A U37G: 0.71; for C6U U122C: 0.82.
Under U9C A59U stands 1.48; under G7U G138C, 2.14.
As for C6U U43A, the self-cleavage turned out to be 0.96.
Under U9A A56G stands 1.3.
Under C10U A125G stands 0.61; under G8C A52C, 2.89; under U9C U70A, 0.97.
U9C U70C: the self-cleavage worked out at 0.77.
The same measure for C10A G44A: 1.2; for U9C G123A: 2.14.
A11C U43C: the self-cleavage is 2.23.
Take U9A A116G: the self-cleavage amounted to 0.45.
Take U9A A116U: the self-cleavage was 0.18.
The same measure for U9C C16U: 1.59; for C10A: 1.11; for C10U: 0.84.
Under U9C A69G stands 1.38; under G7A A54G, 0.81.
With U9C A11G, the self-cleavage was determined as 0.85.
In the case of U9C A11C, the self-cleavage was found to be 1.71.
The same measure for G7U A13G: 1.41; for G7A A27U: 0.85; for G7A A23G: 0.87.
The same measure for C10U A68G: 0.34; for A11G A69G: 0.99.
Under A11G A69U stands 1.
For the variant G8A A69G, the self-cleavage is 1.29.
The same measure for G8A A117U: 1.67.
Regarding C10U G104A, the self-cleavage was found to be 0.06.
As for U9C A64G, the self-cleavage worked out at 1.52.
The same measure for U9C A36U: 1.48; for U9C A90G: 1.04; for U9A U132C: 0.79.
The same measure for G7U U97A: 1.41; for A11C A52U: 1.5.
Under A11G A33G stands 0.84; under A11G A33C, 1.98.
As for G7U A23G, the self-cleavage is 1.04.
Turning to G7U A23C, the self-cleavage was found to be 1.66.
Consider U9G U108C, for which the self-cleavage came to 0.05.
Under U9C A33U stands 1.73.
Under U9C A33G stands 1.15; under G8A A118G, 1.28.
Turning to U9C U120C, the self-cleavage was determined as 1.66.
Under G8A A52G stands 2.73; under U9C U124C, 1.25; under U9A U72C, 0.16.
Under U9C A13G stands 0.81; under U9C G41U, 1.55; under U9C C85U, 1.44.
Under C10A U127C stands 0.84.
As to U9G C45G, the self-cleavage was determined as 0.5.
Under U9C A117G stands 1.91; under U9C A117U, 1.04; under A11G A13G, 1.26.
The same measure for A11G A13U: 0.72; for A11C A114U: 0.09; for G7U A68G: 2.39.
Regarding U9C U38A, the self-cleavage amounted to 1.98.
The same measure for U9C U38C: 1.7; for U9A A129U: 1.02.
Turning to A11G A54U, the self-cleavage was 1.09.
The same measure for U9C U122A: 1.06.

(Values after the RNAGym collection of RNA variant scans (doi:10.7554/elife.90254).)
